Data reported in the Human Domainome abundance scans (Beltran et al. 2025).
± gives the uncertainty stated by the source.

B1: Ventral anterior homeobox 1, residues 102 to 157; numbered along this chain, Q5SQQ9 (parent)
chain: RTRTSFTAEQLYRLEMEFQRCQYVVGRERTELARQLNLSETQVKVWFQNRRTKQKK
B2: Glucocorticoid receptor, residues 419 to 494; numbered along this chain, P04150 (parent)
chain: KLCLVCSDEASGCHYGVLTCGSCKVFFKRAVEGQHNYLCAGRNDCIIDKIRRKNCPACRYRKCLQAGMNLEARKTK

Variants of: B1
Assay: abundance fitness (aPCA) (normalised: wild type 0, dead -1); higher = more abundant; growth selection in yeast, the domain comes from the species named
Details: Homo sapiens

Row | Variant | abundance fitness
1 | A33S | -0.115 ± 0.12
2 | A33P | -0.997 ± 0.42
3 | A33E | -0.905 ± 0.3
4 | A33R | -0.992 ± 0.18
5 | E28C | -0.412 ± 0.18
6 | E28I | -0.657 ± 0.29
7 | E28M | -0.446 ± 0.2
8 | E28T | -0.247 ± 0.17
9 | E28S | -0.338 ± 0.15
10 | K55E | 0.238 ± 0.15
11 | K55F | -0.229 ± 0.21
12 | K55C | -0.091 ± 0.2
13 | K55Y | -0.199 ± 0.23
14 | K55A | 0.086 ± 0.1
15 | K55V | 0.119 ± 0.1
16 | K55M | -0.288 ± 0.18
17 | E31N | 0.028 ± 0.41
18 | E31Y | -1.04 ± 0.43
19 | E31R | -0.657 ± 0.12
20 | E31H | -0.468 ± 0.3
21 | E31Q | -0.347 ± 0.17
22 | F18C | -0.741 ± 0.27
23 | F18V | -0.887 ± 0.18

Row | Variant | abundance fitness
24 | V24D | -0.347 ± 0.31
25 | V24T | -0.074 ± 0.19
26 | V24A | -0.12 ± 0.14
27 | E15F | -0.533 ± 0.33
28 | E15Q | -1.01 ± 0.27
29 | E15S | -0.766 ± 0.2
30 | E15D | -0.379 ± 0.22
31 | Y12T | 0.018 ± 0.14
32 | Y12L | -0.086 ± 0.12
33 | Y12P | -0.967 ± 0.21
34 | K53H | -0.226 ± 0.32
35 | K53I | -0.02 ± 0.28
36 | K53V | 0.137 ± 0.12
37 | K53R | -0.088 ± 0.09
38 | K53E | 0.186 ± 0.16
39 | K53D | 0.209 ± 0.19
40 | K53S | 0.161 ± 0.17
41 | K53Y | 0.292 ± 0.43
42 | R50H | -0.624 ± 0.43
43 | R50T | -0.392 ± 0.16
44 | R50Q | -0.098 ± 0.17
45 | R50Y | -0.285 ± 0.27
46 | T4K | -0.079 ± 0.19

Row | Variant | abundance fitness
47 | T4G | -0.269 ± 0.099
48 | T4F | -0.347 ± 0.45
49 | F47C | -0.743 ± 0.29
50 | F47W | -0.651 ± 0.25
51 | F47D | -0.674 ± 0.23
52 | F47P | -0.836 ± 0.25
53 | F47S | -0.762 ± 0.21
54 | F47A | -1.02 ± 0.17
55 | F47G | -0.976 ± 0.14
56 | Q42D | 0.028 ± 0.33
57 | Q42E | 0.183 ± 0.16
58 | Q48E | -0.193 ± 0.31
59 | Q48M | -0.122 ± 0.3
60 | Q48V | -0.115 ± 0.18
61 | M16R | -0.233 ± 0.11
62 | M16Q | 0.008 ± 0.2
63 | M16T | -0.076 ± 0.2
64 | M16C | -0.055 ± 0.21
65 | M16A | -0.043 ± 0.14
66 | M16D | 0.075 ± 0.23
67 | M16I | -0.295 ± 0.25
68 | E9I | -0.456 ± 0.21
69 | E9A | -0.244 ± 0.13

Row | Variant | abundance fitness
70 | E9Q | -0.207 ± 0.21
71 | E9R | -0.455 ± 0.11
72 | E9Y | -0.398 ± 0.23
73 | N49L | -0.046 ± 0.12
74 | N49K | -0.022 ± 0.18
75 | N49P | -0.929 ± 0.31
76 | N49R | -0.26 ± 0.11
77 | N49F | -0.609 ± 0.48
78 | N49I | -0.069 ± 0.27
79 | Q22V | -0.324 ± 0.12
80 | Q22R | -0.32 ± 0.12
81 | Q22Y | -0.641 ± 0.35
82 | Q22S | -0.087 ± 0.12
83 | Q19N | -0.115 ± 0.22
84 | Q19Y | -0.603 ± 0.3
85 | Q19D | -0.161 ± 0.19
86 | Q19R | -0.316 ± 0.11
87 | L14F | -0.789 ± 0.38
88 | L14W | -0.747 ± 0.26
89 | K56P | 0.143 ± 0.36
90 | K56Y | -0.039 ± 0.19
91 | K56W | 0.078 ± 0.38
92 | K56V | 0.005 ± 0.22

Row | Variant | abundance fitness
93 | L38C | -0.186 ± 0.16
94 | L38A | -0.253 ± 0.11
95 | L38P | -1.02 ± 0.25
96 | L38K | -0.773 ± 0.24
97 | E40G | -0.413 ± 0.098
98 | E40D | -0.128 ± 0.16
99 | E40L | -0.711 ± 0.15
100 | Q35D | -0.005 ± 0.19
101 | Q35M | -0.087 ± 0.15
102 | Q35C | -0.08 ± 0.14
103 | S5G | -0.002 ± 0.092
104 | S5C | -0.225 ± 0.16
105 | S5L | -0.179 ± 0.15
106 | S5I | -0.177 ± 0.19
107 | Q54K | 0.144 ± 0.27
108 | Q54R | -0.237 ± 0.084
109 | Q54T | -0.332 ± 0.22
110 | C21D | 0.16 ± 0.47
111 | C21W | -0.635 ± 0.33
112 | C21H | -0.215 ± 0.35
113 | C21L | -0.377 ± 0.17

Variants of: B2
Assay: as above
Details: Homo sapiens

Row | Variant | abundance fitness
114 | KLCLVCSDEASGCHYGVLTCGSCKVFFKRAVEGQHNYLCAGRNDCIIDKIRRKNCPACRYRKCLQAGMNLEARKSK | 0.008 ± 0.043
115 | KLCLVCSDEASGCHYGVLTCGSCKVFFKRAVEGQHNYLCAGRNDCIIDKIRRKNCPACRYRKCLQAGMNLEARKVK | -0.064 ± 0.048
116 | KLCLVCSDEASGCHYGVLTCGSCKVFFKRAVEGQHNYLCAGRNDCIIDKIRRKNCPACRYRKCLQAGMNLEARKWK | 0.047 ± 0.052
117 | KLCLVCSDEASGCHYGVLTCGSCKVFFKRAVEGQHNYLCAGRNDCIIDKIRRKNCPACRYRKCLQAGMNLEARKTV | -0.001 ± 0.047
118 | KLCLVCSDEASGCHYGVLTCGSCKVFFKRAVEGQHNYLCAGRNDCIIDKIRRKNCPACRYRKCLQAGMNLEARKTW | -0.137 ± 0.083
119 | KLCLVCSDEASGCHYGVLTCGSCKVFFKRAVEGQHNYLCAGRNDCIIDKIRRKNCPACRYRKCLQAGMNLEARKTG | 0.018 ± 0.052
120 | KLCLVCSDEASGCHYGVLTCGSCKVFFKRAVEGQHNYLCAGRNDCIIDKIRRKNCPACRYRKCLQAGMNLEARKTD | 0.02 ± 0.068
121 | KLCLVCSDEASGCHYGVLTCGSCKVFFKRAVEGQHNYLCAGRNDCIIDKIRRKNCPACRYRKCLQAGMNLEARKTL | -0.001 ± 0.048
122 | KLCLVCSDEASGCHYGVLTCGSCKVFFKRAVEGQHNYLCAGRNDCIIDKIRRKNCPACRYRKCLQAGMNLEARKTH | -0.096 ± 0.27
123 | KLCLVCSDEASGCHYGVLTCGSCKVFFKRAVEGQHNYLCAGRNDCIIDKIRRKNCPACRYRKCLQAGMNLEARKTI | -0.277 ± 0.28
124 | KLCLVCSDEASGCHYGVLTCGSCKVFFKRAVEGQHNYLCAGRNDCIIDKIRRKNCPACRYRKCLQAGMNLEARKTF | 0.006 ± 0.11
125 | KLCLVCSDEASGCHYGVLTCGSCKVFFKRAVEGQHNYLCAGRNDCIIDKIRRKNCPACRYRKCLQAGMNLEARKTM | -0.023 ± 0.1
126 | KLCLVCSDEASGCHYGVLTCGSCKVFFKRAVEGQHNYLCAGRNDCIIDKIRRKNCPACRYRKCLQAGMNLEARKTA | 0.028 ± 0.051
127 | KLCLVCSDEASGCHYGVLTCGSCKVFFKRAVEGQHNYLCAGRNDCIIDKIRRKNCPACRYRKCLQAGMNLEARKTN | 0.045 ± 0.095
128 | KLCLVCSDEASGCHYGVLTCGSCKVFFKRAVEGQHNYLCAGRNDCIIDKIRRKNCPACRYRKCLQAGMNLEARKTC | 0.132 ± 0.14
129 | KLCLVCSDEASGCHYGVLTCGSCKVFFKRAVEGQHNYLCAGRNDCIIDKIRRKNCPACRYRKCLQAGMNLEARKTP | 0.004 ± 0.073
130 | KLCLVCSDEASGCHYGVLTCGSCKVFFKRAVEGQHNYLCAGRNDCIIDKIRRKNCPACRYRKCLQAGMNLEARKTS | 0.099 ± 0.052
131 | KLCLVCSDEASGCHYGVLTCGSCKVFFKRAVEGQHNYLCAGRNDCIIDKIRRKNCPACRYRKCLQAGMNLEARKTE | 0.105 ± 0.059
132 | KLCLVCSDEASGCHYGVLTCGSCKVFFKRAVEGQHNYLCAGRNDCIIDKIRRKNCPACRYRKCLQAGMNLEARKTY | -0.206 ± 0.17
